Measurements published in patent US20220160939A1, “SELF-ASSEMBLING PEPTIDES AS BRONCHIAL OBSTRUCTION AGENTS” (3-D MATRIX, LTD., priority 2014, published 2022).
Where no end group is shown, it is not given here.

Legend:
[1] = Appearance of 1.5% peptide solutions with various salts at room temperature; format: physicochemical; conditions: for Appearance: room temperature
Method: The effect of salt ionic strength level on the properties of peptide solutions was evaluated to identify optimized salt ionic strength levels for the peptides as described herein. Increasing the salt ionic strength level of PuraMatrix® (SEQ ID NO:1) and other peptides may generally improve its function and mechanical strength for various clinical applications. To adjust the salt ionic strength of the peptide solutions by way of example, various salt buffer solutions including NaCl, KCl, MgCl2, CaCl2 and DPBS (10×) were added to 2 mL of 1.5% peptide solutions.

[2] = Rheological properties of peptide solutions at adjusted salt ionic strength; format: physicochemical
Method: Based on the visual observation of the effect of salt ionic strength on the properties of the peptide solutions, the effect on the rheological properties of the peptide solutions after adjusting their ionic strength level with NaCl to 0.7 M (PuraMatrix® (SEQ ID NO:1)), 0.2 M (KLD12 (SEQ ID NO:3)) or 0.02 M (IEIK13 (SEQ ID NO:2)), which is closely below the critical ionic strength at which each peptide becomes cloudy, was evaluated. If the ionic strength levels with NaCl of peptide solutions are higher than 0.9 M (PuraMatrix® (SEQ ID NO:1)), 0.3 M (KLD12 (SEQ ID NO:3)) or 0.03 M (IEIK13 (SEQ ID NO:2)), the peptide solutions begin phase separation becoming cloudy and weak. The rheological property of PuraMatrix® (SEQ ID NO:1), KLD12 (SEQ ID NO:3) and IEIK13 (SEQ ID NO:2) solutions was higher after adjusting their ionic strength level with NaCl to 0.7 M (PuraMatrix® (SEQ ID NO:1)), 0.2 M (KLD12 (SEQ ID NO:3)) or 0.02 M (IEIK13 (SEQ ID NO:2)). The results are shown in FIG. 10 for KLD12 (SEQ ID NO:3) 1%, FIG. 11 for IEIK13 (SEQ ID NO:2) 1%, and FIG. 12 for PuraMatrix® (SEQ ID NO:1) 1%, respectively. Frequency sweep tests were performed from 1 rad/s to 10 rad/s at 1 Pa.
Based on the results of the effect on the rheological properties of the peptide solutions after adjusting their ionic strength level with NaCl to 0.7 M (PuraMatrix® (SEQ ID NO:1)), 0.2 M (KLD12 (SEQ ID NO:3)) or 0.02 M (IEIK13 (SEQ ID NO:2)), the effect on the rheological properties of the peptide solution at various salt ionic strengths was evaluated. […] The results are shown in FIG. 13 for PuraMatrix® (SEQ ID NO:1) 1% solutions and in FIG. 14 for IEIK13 (SEQ ID NO:2) 1% solutions. Frequency sweep tests were performed from 1 rad/sec to 10 rad/sec at 1 Pa and the storage modulus at 1 rad/sec was selected for data.
Based on the results of the effect on the rheological properties of the peptide solutions and hydrogels after adjusting their ionic strength levels with NaCl, the effect of various salts (KCl, MgCl2, and CaCl2) was also evaluated. The rheological property of PuraMatrix® (SEQ ID NO:1) solutions increases with ionic strength adjustment at 0.15 M of all the salts. Increases of the rheological property of PuraMatrix® (SEQ ID NO:1) solutions with various salts were not predominantly different. However, increases of the rheological property of PuraMatrix® (SEQ ID NO:1) solutions may vary depending on the salting out constant, K of each salt. Constant K is a constant in Cohen's equation: log S=B−KI, where S is solubility, B is idealized solubility, K is salting out constant, and I is ionic strength. With a higher value of constant K and ionic strength of salts, solubility of the peptide may decrease resulting in strong peptide self-assembly with increased hydrophobic effect and higher rheological properties of the peptide solution. The constant K of NaCl may be higher than the other salts. […] The results are shown in FIG. 17 for PuraMatrix® (SEQ ID NO:1) 1% solution before DMEM treatment, and in FIG. 18 for PuraMatrix® (SEQ ID NO:1) 1% hydrogels after DMEM treatment for 10 min Frequency sweep tests were performed from 1 rad/sec to 10 rad/sec at 1 Pa and the storage modulus at 1 rad/sec was selected for data.

KLDLKLDLKLDL [KLD12]
critical salt ionic strengths at which peptides become cloudy [1]: 0.3˜0.4 M
Appearance ([1]; CaCl2 0 M, ionic strength 0 M, conc. 1.5%): Clear, thick gel
Appearance ([1]; CaCl2 0.05 M, ionic strength 0.15 M, conc. 1.48%): Clear, thick, stiffer gel
Appearance ([1]; CaCl2 0.067 M, ionic strength 0.2 M, conc. 1.47%): Clear, thick, stiffer gel
Appearance ([1]; CaCl2 0.083 M, ionic strength 0.25 M, conc. 1.46%): Clear, thick, stiffer gel
Appearance ([1]; CaCl2 0.1 M, ionic strength 0.3 M, conc. 1.45%): Clear, thick, stiffer gel
Appearance ([1]; CaCl2 0.117 M, ionic strength 0.35 M, conc. 1.44%): Clear, thick, stiffer gel
Appearance ([1]; CaCl2 0.133 M, ionic strength 0.4 M, conc. 1.43%): Slightly cloudy, thick, stiffer gel
Appearance ([1]; CaCl2 0.15 M, ionic strength 0.45 M, conc. 1.43%): Slightly cloudy, brittle gel
Appearance ([1]; CaCl2 0.167 M, ionic strength 0.5 M, conc. 1.42%): Cloudy, phase-separated
Appearance ([1]; KCl 0 M, ionic strength 0 M, conc. 1.5%): Clear, thick gel
Appearance ([1]; KCl 0.05 M, ionic strength 0.5 M, conc. 1.48%): Clear, thick, stiffer gel
Appearance ([1]; KCl 0.1 M, ionic strength 0.1 M, conc. 1.45%): Clear, thick, stiffer gel
Appearance ([1]; KCl 0.15 M, ionic strength 0.15 M, conc. 1.43%): Clear, thick, stiffer gel
Appearance ([1]; KCl 0.2 M, ionic strength 0.2 M, conc. 1.4%): Clear, thick, stiffer gel
Appearance ([1]; KCl 0.25 M, ionic strength 0.25 M, conc. 1.38%): Clear, thick, stiffer gel
Appearance ([1]; KCl 0.3 M, ionic strength 0.3 M, conc. 1.35%): Slightly cloudy, thick, stiffer gel
Appearance ([1]; KCl 0.35 M, ionic strength 0.35 M, conc. 1.32%): Slightly cloudy, brittle gel
Appearance ([1]; KCl 0.4 M, ionic strength 0.4 M, conc. 1.3%): Cloudy, phase-separated
Appearance ([1]; MgCl2 0 M, ionic strength 0 M, conc. 1.5%): Clear, thick gel
Appearance ([1]; MgCl2 0.05 M, ionic strength 0.15 M, conc. 1.48%): Clear, thick, stiffer gel
Appearance ([1]; MgCl2 0.067 M, ionic strength 0.2 M, conc. 1.47%): Clear, thick, stiffer gel
Appearance ([1]; MgCl2 0.083 M, ionic strength 0.25 M, conc. 1.46%): Clear, thick, stiffer gel
Appearance ([1]; MgCl2 0.1 M, ionic strength 0.3 M, conc. 1.45%): Clear, thick, stiffer gel
Appearance ([1]; MgCl2 0.117 M, ionic strength 0.35 M, conc. 1.44%): Clear, thick, stiffer gel
Appearance ([1]; MgCl2 0.133 M, ionic strength 0.4 M, conc. 1.43%): Slightly cloudy, thick, stiffer gel
Appearance ([1]; MgCl2 0.15 M, ionic strength 0.45 M, conc. 1.43%): Slightly cloudy, brittle gel
Appearance ([1]; MgCl2 0.167 M, ionic strength 0.5 M, conc. 1.42%): Cloudy, phase-separated
Appearance ([1]; NaCl 0 M, ionic strength 0 M, conc. 1.5%): Clear, thick gel
Appearance ([1]; NaCl 0.05 M, ionic strength 0.5 M, conc. 1.48%): Clear, thick, stiffer gel
Appearance ([1]; NaCl 0.1 M, ionic strength 0.1 M, conc. 1.45%): Clear, thick, stiffer gel
Appearance ([1]; NaCl 0.15 M, ionic strength 0.15 M, conc. 1.43%): Clear, thick, stiffer gel
Appearance ([1]; NaCl 0.2 M, ionic strength 0.2 M, conc. 1.4%): Clear, thick, stiffer gel
Appearance ([1]; NaCl 0.25 M, ionic strength 0.25 M, conc. 1.38%): Clear, thick, stiffer gel
Appearance ([1]; NaCl 0.3 M, ionic strength 0.3 M, conc. 1.35%): Slightly cloudy, thick, stiffer gel
Appearance ([1]; NaCl 0.35 M, ionic strength 0.35 M, conc. 1.32%): Slightly cloudy, brittle gel
Appearance ([1]; NaCl 0.4 M, ionic strength 0.4 M, conc. 1.3%): Cloudy, phase-separated
salt ionic strength increase that did not change the clear color, while apparent stiffness increased ([1]; depending on different salts, 1.5% peptide solutions): 0.25˜0.35 M
ionic strength level with NaCl above which solutions begin phase separation becoming cloudy and weak ([2]; NaCl): > 0.3 M
rheological property after adjusting ionic strength level with NaCl ([2]; NaCl to 0.7 M (PuraMatrix), 0.2 M (KLD12) or 0.02 M (IEIK13), 1% solutions): higher
